Data taken from patent US10711246B2, “Methods and compositions for generating epicardium cells” (UNIVERSITY HEALTH NETWORK, priority 2013, dated 2020).
“Also recorded” adds a separate entry of the source.

Assays:
hESC-derived mesoderm [1] = experiment: Cardiomyocyte specification from hESC-derived day 4 mesoderm, cTnT+ cells at day 15 by flow cytometry; assay type: cell-based, human; conditions: for cardiomyocyte development in presence of Wnt and activin/nodal/TGFβ inhibitor: specification step, contracting cTnT/SIRPA cells at day 15; for cardiomyocyte development / specification: added to day 4 mesoderm during specification step, high levels of BMP4 or inhibitors, analysed day 15
Protocol: FIG. 1. Cardiomyocyte specification from hESCs. Scheme of the protocol used to differentiate hESCs towards the cardiomyocyte lineage highlighting the three main stages of development: 1) mesoderm induction, 2) cardiovascular specification and 3) maturation. Cells from ActivinA/BMP4-induced day 4 embryoid bodies (EBs) are plated as a monolayer on gelatin coated wells. […] Following specification, the cultures were maintained in VEGF for 9 days and then analyzed for the presence of cTnT+ cardiomyocytes by flow cytometry. FIG. 2. […] (a) Flow cytometric analyses showing the presence of the KDR+ and PDGFRα+ populations at day 4 and day 5 and the cTnT+ expression on day 15 of culture following no treatment (control), treatment with BMP4 (10 ng/ml) or the BMP4 inhibitor Noggin (400 ng/ml). (b) Total cell numbers per well at day 15 in the cultures treated as above. Error bars represent standard deviation from the mean from three experiments. FIG. 3. […] Graphical representation of flow cytometry analyses indicating the percent cTnT^+ cells in day 15 cultures generated from populations treated with the indicated amounts of BMP4 or Noggin. NT=no treatment. Bars represent standard deviation from the mean of the values from three independent experiments (N=3); *P≤0.05, **P≤0.01 when compared to no treatment. FIG. 9. […] Error bars represent standard deviation from the mean of the values from three independent experiments (N=3); *P≤0.05, **P≤0.01 when compared to the ‘no Wnt treatment’ (NT) control in context of the indicated manipulation of the BMP pathway. (b) qRT-PCR-based analyses of WT1 expression on day 15 cultures generated from untreated cells (control) or cells treated with either BMP4 (10 ng/ml) or DM (4 μM) in combination with the indicated amounts of DKK or CHIR. Values are relative to the housekeeping gene TBP. Error bars represent standard deviation from the mean of the values from three independent experiments (N=3); *P≤0.05, **P≤0.01 when compared to the ‘no Wnt treatment’ (NT) control in the context of the indicated manipulation of the BMP pathway. (c) Flow cytometry analyses showing percent cTnT+ cells and qRT-PCR analyses for WT1 expression in day 15 cultures generated from untreated cells (control) or cells treated with either BMP4 (10 ng/ml) or DM (4 μM) in combination with the indicated amounts of XAV939 (XAV). Error bars represent standard deviation from the mean of the values from three independent experiments (N=3); *P≤0.05, **P≤0.01 when compared to no Wnt treatment (see FIGS. 9a and 9b) in the context of the specific BMP treatment. (d) Flow cytometry analyses showing percent cTnT+ cells and qRT-PCR analyses of WT1 expression in day 15 cultures generated from untreated cells (control) or cells treated with either BMP4 (10 ng/ml) or DM (4 μM) in combination with the indicated amounts of IWP2. Error bars represent standard deviation from the mean of the values from three independent experiments (N=3); *P≤0.05, **P≤0.01 when compared to no Wnt treatment (see FIGS. 9a and 9b) in the context of the specific BMP treatment. Media consisting of StemPro-34 (Life Technologies) supplemented with […] penicillin/streptomycin, 2 mM L-glutamine, 1 mM ascorbic acid, and 4 3 10_4 M monothioglycerol (MTG) (Sigma). […] The Activin/Nodal/TGF-b and BMP inhibition experiments were carried out with SB-431542 (Tocris, Ellisville, Mo.) and dorsomorphin (Sigma), respectively. For experiments involving Wnt signaling, CHIR-99021 (Stemgent), XAV-939 (R&D), or IWP2(R&D) were used at the indicated concentrations. Cultures were maintained in a 5% CO2, 5% O2, 90% N2 environment for the first 10-12 days and were then transferred into a 5% CO2 air environment for the remainder of the culture period.

hESC-derived mesoderm [2] = experiment: qRT-PCR and immunostaining of myocardial and epicardial markers (WT1, TBX18) after treatment of mesoderm; assay type: cell-based, human; conditions: for WT1 expression in BMP4-treated cells: higher concentrations of DKK1 or small molecule antagonists, CHIR
Text: Values are relative to the housekeeping gene TBP. Error bars represent standard deviation from the mean of the values from three independent experiments (N=3); *P≤0.05, **P≤0.01 when compared to no treatment. FIG. 5. […] Error bars represent standard deviation from the mean of the values from three independent experiments (N=3); *P≤0.05, **P≤0.01 when compared to the ‘no Wnt treatment’ (NT) control in context of the indicated manipulation of the BMP pathway. (b) qRT-PCR-based analyses of WT1 expression on day 15 cultures generated from untreated cells (control) or cells treated with either BMP4 (10 ng/ml) or DM (4 μM) in combination with the indicated amounts of DKK or CHIR. Values are relative to the housekeeping gene TBP. Error bars represent standard deviation from the mean of the values from three independent experiments (N=3); *P≤0.05, **P≤0.01 when compared to the ‘no Wnt treatment’ (NT) control in the context of the indicated manipulation of the BMP pathway. (c) Flow cytometry analyses showing percent cTnT+ cells and qRT-PCR analyses for WT1 expression in day 15 cultures generated from untreated cells (control) or cells treated with either BMP4 (10 ng/ml) or DM (4 μM) in combination with the indicated amounts of XAV939 (XAV). Error bars represent standard deviation from the mean of the values from three independent experiments (N=3); *P≤0.05, **P≤0.01 when compared to no Wnt treatment (see FIGS. 9a and 9b) in the context of the specific BMP treatment. (d) Flow cytometry analyses showing percent cTnT+ cells and qRT-PCR analyses of WT1 expression in day 15 cultures generated from untreated cells (control) or cells treated with either BMP4 (10 ng/ml) or DM (4 μM) in combination with the indicated amounts of IWP2. Error bars represent standard deviation from the mean of the values from three independent experiments (N=3); *P≤0.05, **P≤0.01 when compared to no Wnt treatment (see FIGS. 9a and 9b) in the context of the specific BMP treatment. […] As a first approach to identify these cells, we analyzed them for expression of a panel of myocardial and epicardial genes over a 6-15 day time course. […] In vivo, the epicardial cells form an epithelial layer that surrounds the developing heart^18. In addition to their distinct morphology, epithelial cells in culture are characterized by their ability to form tight junctions that can be monitored by the presence of the zona occludins 1 (ZO1) protein.

[3] = titration during specification step, FIG. 3
[4] = qRT-PCR, 6-15 day time course, cells from treated mesoderm

Cc1c[nH]c(-c2cnc(NCCNc3ccc(C#N)cn3)nc2-c2ccc(Cl)cc2Cl)n1 [CHIR99021, reference compound]
cardiomyocyte development in DM-treated cultures (hESC-derived mesoderm [1]; Wnt activation in presence of dorsomorphin): unaffected
cardiomyocyte development in the endogenous BMP control (hESC-derived mesoderm [1]; Wnt activation, no BMP pathway regulators): inhibited cardiomyocyte development
WT1 expression in DM treated cultures (hESC-derived mesoderm [2]; qRT-PCR day 15): no change in WT1 expression
WT1 expression in the endogenous BMP population (hESC-derived mesoderm [2]; qRT-PCR day 15): increased levels
WT1 expression in BMP4-treated cells (hESC-derived mesoderm [2]; qRT-PCR day 15): did not impact WT1 expression

Cc1ccc2nc(NC(=O)CSc3nc4c(c(=O)n3-c3ccccc3)SCC4)sc2c1 [IWP2, reference compound]
WT1 expression in BMP4-treated cells (hESC-derived mesoderm [2]; qRT-PCR day 15): decreased WT1 expression

NC(=O)c1ccc(-c2nc(-c3ccc4c(c3)OCO4)c(-c3ccccn3)[nH]2)cc1 [SB431542, reference compound]
cardiomyocyte development in presence of Wnt and activin/nodal/TGFβ inhibitor (hESC-derived mesoderm [1]): cardiomyocytes routinely develop

Oc1nc(-c2ccc(C(F)(F)F)cc2)nc2c1CSCC2 [XAV939, reference compound]
WT1 expression in BMP4-treated cells (hESC-derived mesoderm [2]; qRT-PCR day 15): decreased WT1 expression

B1: DKK1 (protein, UniProt O94907 32-266, looked up)
Dickkopf-related protein 1: TLNSVLNSNAIKNLPPPLGGAAGHPGSAVSAAPGILYPGGNKYQTIDNYQPYPCAEDEECGTDEYCASPTRGGDAGVQICLACRKRRKRCMRHAMCCPGNYCKNGICVSSDQNHFRGEIEETITESFGNDHSTLDGYSRRTTLSSKMYHTKGQEGSVCLRSSDCASGLCCARHFWSKICKPVLKEGQVCTKHRRKGSHGLEIFQRCYCGEGLSCRIQKDHHQASNSSRLHTCQRH
cardiomyocyte development in presence of Wnt and activin/nodal/TGFβ inhibitor (hESC-derived mesoderm [1]): cardiomyocytes routinely develop

B2: Bone Morphogenetic Protein 4 (protein, UniProt P12644 293-408, looked up)
Bone morphogenetic protein 4: SPKHHSQRARKKNKNCRRHSLYVDFSDVGWNDWIVAPPGYQAFYCHGDCPFPLADHLNSTNHAIVQTLVNSVNSSIPKACCVPTELSAISMLYLDEYDKVVLKNYQEMVVEGCGCR
notes: Bone Morphogenetic Protein 4, human BMP4 (R&D Systems)
cardiomyocyte development / specification (hESC-derived mesoderm [1]): completely blocked cardiomyocyte development
concentrations that inhibited cardiomyocyte specification (hESC-derived mesoderm [1]; [3]): ≥ 0.63 ng/mL
low levels at which cardiomyocyte development is achieved (hESC-derived mesoderm [1]; [3]): 0.31 ng/mL
WT1 (nuclear) by immunostaining (hESC-derived mesoderm [2]; day 15 of culture): detected only in cells induced with BMP4
TBX18 expression (hESC-derived mesoderm [2]; [4]): predominantly
WT1 expression (hESC-derived mesoderm [2]; [4]): exclusively
BNC1 and ANXA8 expression (hESC-derived mesoderm [2]; qRT-PCR, cells from treated mesoderm): highly expressed

B3: noggin (protein, UniProt Q13253 28-232, looked up)
Noggin: QHYLHIRPAPSDNLPLVDLIEHPDPIFDPKEKDLNETLLRSLLGGHYDPGFMATSPPEDRPGGGGGAAGGAEDLAELDQLLRQRPSGAMPSEIKGLEFSEGLAQGKKQRLSKKLRRKLQMWLWSQTFCPVLYAWNDLGSRFWPRYVKVGSCFSKRSCSVPEGMVCKPSKSVHLTVLRWRCQRRGGQRCGWIPIQYPIISECKCSC
cardiomyocyte development / specification (hESC-derived mesoderm [1]): completely blocked cardiomyocyte development; also recorded: inhibited cardiomyocyte specification
levels of KDR (mesoderm development) (hESC-derived mesoderm [1]; flow cytometry after treatment of day 4 mesoderm): decrease the levels of KDR to some extent
low levels at which cardiomyocyte development is achieved (hESC-derived mesoderm [1]; [3]): 12.5 to 200 ng/mL
expression of panel of myocardial and epicardial genes (hESC-derived mesoderm [2]; qRT-PCR, 6-15 day time course): did not express significant levels of any of these genes
